Target: T1, HLA-A*02:01 (human)
T1 construct: MHC class I monomer of the UV-ligand exchange assay; also called peptide-receptive MHC molecules; MHC class I
Assay: UV peptide-exchange ELISA
Method in brief: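 Peptide-MHC complexes formed by UV-mediated exchange of a UV-cleavable peptide for the test peptide; exchange yield quantified by β2m ELISA. Diluted 100-fold, captured on streptavidin-coated plates 1 h at 37 °C, detected with HRP anti-β2m and TMB at 450 nm against refolded HLA-A*02:01 monomer standards (15-500 ng/ml).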

peptide exchange yield	Binder
50 to 75%	ALAKPPVVSV
≥ 75%	YMAVTTQEV
50 to 75%	VLVQVSPSL
50 to 75%	VLWELAHLPTL
50 to 75%	NLQVTQPTV
50 to 75%	SLASIHVPL
50 to 75%	ALSEKLARL
50 to 75%	QVIPQLQTV
50 to 75%	ILQEFESKL
50 to 75%	HLIDTNKIQL
50 to 75%	TLENGVPCV
≥ 75%	FLDMTNWNL
50 to 75%	KMDWIFHTI
50 to 75%	YLYQEQYFI
50 to 75%	YLLEEKIASL
50 to 75%	LVYEAPETV
50 to 75%	VLMWEIYSL
50 to 75%	ELMHGVAGV
50 to 75%	GLWGTVVNI
50 to 75%	FIMDDPAGNSYL
50 to 75%	RLLEFELAQL
≥ 75%	VLAFLVHEL
50 to 75%	SLYSALQQA
≥ 75%	FIDKFTPPV
≥ 75%	KLLEEICNL
≥ 75%	VLLPQETAEIHL
20 to 50%	FLHDHQAEL

peptide exchange yield	Binder
50 to 75%	SLITPLQAV
50 to 75%	FLTDYLNDL
50 to 75%	YLGPVSPSL
50 to 75%	FILPSSLYL
20 to 50%	YMYEKESEL
50 to 75%	VMIQHVENL
50 to 75%	VTLEFPQLIRV
≥ 75%	TIAPVTVAV
50 to 75%	ALEDRVWEL
50 to 75%	ITTEVVNELYV
≥ 75%	VLMDGSVKL
50 to 75%	ALVFELHYV
50 to 75%	MLLEHGITL
50 to 75%	FLIQEIKTL
50 to 75%	ALATHILSL
50 to 75%	YLIEPDVELQRI
50 to 75%	ILTELGGFEV
50 to 75%	FMQDPMEVFV
50 to 75%	NLLAHIWAL
50 to 75%	YLPYIFPNI
20 to 50%	ATPMPTPSV
50 to 75%	VLAFENPQV
50 to 75%	FIWPMLIHI
≥ 75%	SLDLFNCEV
≥ 75%	FILTHVDQL
≥ 75%	VLIKWFPEV
50 to 75%	LLAELPASVHA

— patent US20170165337A1 (IMMATICS BIOTECHNOLOGIES, published 2017)
